Measured values: patent US20250277057A1 (OKLAHOMA MEDICAL RESEARCH FOUNDATION, published 2025)
Changes are numbered by the printed parent chain. Numbers in names are those of the source.

B1: HAPC-14-R1-1H1-F2 (Fab, V domains shown)
VH: EVQLVESGGGLVQPGGSLRLSCAASGFTFSFYYLNWVRQAPGKGLEWVGDIRLKSNNYEKHYAESVKGRFTISRDDSKSITYLQMNSLRAEDTAVYYCAREGDYFDYWGQGTTVTVSS
VL: DIQLTQSPSSLSASVGDRVTITCRASESVDSFGATFMHWYQQKPGKAPKLLIYLASNLESGVPSRFSGSGSGTDFTLTISSLQPEDFATYYCQQNNEDPYTFGQGTKLEIK
notes: Single-site mutant Fab of HAPC-14 in periplasmic extract
B2: HAPC-14-R1-1L7-B9 (Fab, V domains shown)
VH: B1 VH with F31N
VL: B1 VL with D30A
notes: Single-site mutant Fab of HAPC-14; inferred from the clone name (1L7 = VL CDR1, 7th residue, the only D of that CDR)
B3: HAPC-14-R1-2H6-C2 (Fab, V domains shown)
VH: B1 VH with F31N, S55K
VL: B1 VL
notes: Single-site mutant Fab of HAPC-14
B4: HAPC-14-R1-2L4-A1 (Fab, V domains shown)
VH: B1 VH with F31N
VL: B1 VL with N57L
notes: Single-site mutant Fab of HAPC-14; inferred from the clone name (2L4, same site as N57R/W)
B5: HAPC-14-R1-2L4-B2 (Fab, V domains shown)
VH: B1 VH with F31N
VL: B1 VL with N57W
notes: as for B3
B6: HAPC-14-R1-2L4-D4 (Fab, V domains shown)
VH: B1 VH with F31N
VL: B1 VL with N57R
notes: as for B3
B7: HAPC-14-R1-2L4-G9 (Fab, V domains shown)
VH: B1 VH with F31N
VL: B1 VL with N57K
notes: as for B4
B8: HAPC-14-R1-2L6-F2 (Fab, V domains shown)
VH: B1 VH with F31N
VL: B1 VL with E59K
notes: Single-site mutant Fab of HAPC-14; inferred from the clone name (2L6, same site as E59G/P)
B9: HAPC-14-R1-2L6-G1 (Fab, V domains shown)
VH: B1 VH with F31N
VL: B1 VL with E59G
notes: as for B3
B10: HAPC-14-R1-3H4-C5 (Fab, V domains shown)
VH: B1 VH with F31N, Y104S
VL: B1 VL
notes: Single-site mutant Fab of HAPC-14; inferred from the clone name (3H4 = VH CDR3, 4th residue, same site as Y104T)
B11: HAPC-14-R1-3H4-C6 (Fab, V domains shown)
VH: B1 VH with F31N, Y104T
VL: B1 VL
notes: as for B3
B12: HAPC-14-R1-3H7-F2 (Fab, V domains shown)
VH: B1 VH with F31N, Y107P
VL: B1 VL
notes: Single-site mutant Fab of HAPC-14; inferred from the clone name (3H7 = VH CDR3, 7th residue)
B13: HAPC-14-R1-3L1-D11 (Fab, V domains shown)
VH: B1 VH with F31N
VL: B1 VL with Q93W
notes: Single-site mutant Fab of HAPC-14; inferred from the clone name (3L1, same site as Q93V)
B14: HAPC-14-R1-3L1-G8 (Fab, V domains shown)
VH: B1 VH with F31N
VL: B1 VL with Q93V
notes: as for B3
B15: R2-9C1 (Fab, V domains shown)
VH: B1 VH with S55K
VL: B1 VL with N57W, Q93V
notes: Combinatorial mutant Fab of HAPC-14; also called combinatorial mutant No. 16
B16: R2-22A10 (Fab, V domains shown)
VH: B1 VH with S55K
VL: B1 VL with N57R, Q93V
notes: Combinatorial mutant Fab of HAPC-14; also called combinatorial mutant No. 9
B17: R2-22B6 (Fab, V domains shown)
VH: B1 VH
VL: B1 VL with N57R, E59G
notes: Combinatorial mutant Fab of HAPC-14; also called combinatorial mutant No. 15
B18: R2-23E10 (Fab, V domains shown)
VH: B1 VH
VL: B1 VL with N57W, E59G
notes: Combinatorial mutant Fab of HAPC-14; also called combinatorial mutant No. 12
B19: R2-23H2 (Fab, V domains shown)
VH: B1 VH with S55K
VL: B1 VL with N57W, E59G
notes: Combinatorial mutant Fab of HAPC-14; also called combinatorial mutant No. 2
B20: R2-24D4 (Fab, V domains shown)
VH: B1 VH with S55K, Y104T
VL: B1 VL with N57W, E59P
notes: Combinatorial mutant Fab of HAPC-14; also called combinatorial mutant No. 10
B21: R2-24F3 (Fab, V domains shown)
VH: B1 VH with S55K
VL: B1 VL with N57W, E59G, Q93V
notes: Combinatorial mutant Fab of HAPC-14; Printed CDRs are the same as those of R2-32E6; also called combinatorial mutant No. 1
B22: R2-24H1 (Fab, V domains shown)
VH: B1 VH
VL: B1 VL with N57R, E59G, Q93V
notes: Combinatorial mutant Fab of HAPC-14; also called combinatorial mutant No. 8
B23: R2-25B7 (Fab, V domains shown)
VH: B1 VH
VL: B1 VL with N57W, E59P, Q93V
notes: Combinatorial mutant Fab of HAPC-14; also called combinatorial mutant No. 5
B24: R2-25G5 (Fab, V domains shown)
VH: B1 VH with S55K
VL: B1 VL with N57W, E59P, Q93V
notes: Combinatorial mutant Fab of HAPC-14; also called combinatorial mutant No. 3
B25: R2-26E4 (Fab, V domains shown)
VH: B1 VH with S55K
VL: B1 VL with N57R, E59G, Q93V
notes: Combinatorial mutant Fab of HAPC-14; also called combinatorial mutant No. 4
B26: R2-27G7 (Fab, V domains shown)
VH: B1 VH with S55K
VL: B1 VL with N57R, E59G
notes: Combinatorial mutant Fab of HAPC-14; also called combinatorial mutant No. 6
B27: R2-29D9 (Fab, V domains shown)
VH: B1 VH with S55K, Y104T
VL: B1 VL with N57R, E59P, Q93V
notes: Combinatorial mutant Fab of HAPC-14; also called combinatorial mutant No. 7
B28: R2-30F7 (Fab, V domains shown)
VH: B1 VH
VL: B1 VL with N57R, E59P, Q93V
notes: Combinatorial mutant Fab of HAPC-14; also called combinatorial mutant No. 11
B29: R2-32E6 (Fab, V domains shown)
VH: B1 VH with S55K
VL: B1 VL with N57W, E59G, Q93V
notes: Combinatorial mutant Fab of HAPC-14; Printed CDRs are the same as those of R2-24F3; also called combinatorial mutant No. 14

biological target: T1, human activated protein C (human, UniProt P04070 43-197; P04070 212-461); assay: direct antigen coating ELISA (KD ELISA) of Fab periplasmic extract, anti-c-myc HRP
T1 construct: In the plasma assays aPC is generated in human plasma with Protac; also called aPC; haPC
Method: Each well of 96-well plates was coated with an anti-Fab antibody in a coating buffer PBS with pH 7.4 at 4° C. The next day, the plates were blocked with casein in PBS with pH 7.4 at 25° C. for 1 hour. Then, Fab PE was added to the plates, and incubated at 25° C. for 1 hour. After the plates were washed, biotinylated antigen was added to the wells and incubated at 25° C. for 1 hour. Then, the biotinylated antigen was incubated with an SA-horseradish peroxidase (HRP) conjugate at 25° C. for 1 hour. HRP activity was detected with a tetramethylbenzidine (TMB) substrate, and the reaction was quenched with 2M HCl. The plates were read at 450 nm. […] The binding-improved mutants with unique sequences of HAPC-14 were ranked by direct antigen coating ELISA.
Each well of 96-well plates was coated with hPro1. biotin in 1×PBS buffer with pH 7.4, and incubation was carried out overnight at 4° C. The next day, the plates were blocked with casein in 1×PBS buffer with pH 7.4 at 25° C. for 1 hour. Fab PE of each mutant diluted according to one concentration was added to the plates and incubated at 25° C. for 1 hour. Then the Fab PE was incubated with goat anti-c-myc HRP conjugated at 25° C. for 1 hour. HRP activity was detected with a tetramethylbenzidine (TMB) substrate, and the reaction was quenched with 2M HCl. OD values of each plate were read at 450 nm.

Row | Binder | Bmax
1 | B1 | 0.278
2 | B2 | 0.151
3 | B3 | 0.262
4 | B4 | 0.244
5 | B5 | 0.662
6 | B6 | 0.567
7 | B7 | 0.287
8 | B8 | 0.299
9 | B9 | 0.492
10 | B10 | 0.328
11 | B11 | 0.325
12 | B12 | 0.193
13 | B13 | 0.261
14 | B14 | 0.24

biological target: T1, human activated protein C; assay: KD ELISA ranking, direct antigen coating ELISA of Fab

Row | Binder | Bmax
15 | B15 | 1.09
16 | B16 | 1.01
17 | B17 | 1.21
18 | B18 | 1.24
19 | B19 | 1.26
20 | B20 | 0.717
21 | B21 | 1.37
22 | B22 | 1.25
23 | B23 | 1.07
24 | B24 | 1.04
25 | B25 | 1.21
26 | B26 | 0.715
27 | B27 | 0.96
28 | B28 | 0.617
29 | B29 | 1.41
